In the supplement of paper PMC10201428:
± gives the standard deviation of the averaged measurements.

What was measured:
[1] = test system: VchCAST RNA-guided transposition machinery (E. coli BL21(DE3) host, lacZ target); experiment: relative integration efficiency (T-LR orientation) vs wild-type transposon end (log2 (normalized fold change)); transposon end mutated: right end (5 bp flank + 75 bp right end); higher = more efficient transposition
How it was run: (§1)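 A T7-driven effector plasmid encoding a CRISPR array, tniQ-cas8-cas7-cas6 and tnsA-tnsB-tnsC was co-transformed into E. coli BL21(DE3) together with a pUC57 mini-transposon donor holding barcoded pools of 1549 left-end or 1849 right-end variants. Transformants were plated with 0.1 mM IPTG at 37°C for 18 h. Illumina sequencing of PCR-amplified input plasmids and genomic integration junctions gave barcode abundances, and relative integration efficiency is their output/input fold change, normalised to reference barcodes and log-transformed.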

[2] = test system: VchCAST RNA-guided transposition machinery (E. coli BL21(DE3) host, lacZ target); experiment: relative integration efficiency (T-RL orientation) vs wild-type transposon end (log2 (normalized fold change)); transposon end mutated: right end (5 bp flank + 75 bp right end); higher = more efficient transposition
How it was run: as §1

| Sequence | relative integration efficiency (log2) [1] | relative integration efficiency (log2) [2] |
| --- | --- | --- |
| ACATTTGTTGATACAACCATAAAATGATAATTACACCCATAAATTGATAATTATCACACCCATAAATTGATATTGCCTCTGATCATAAATATATAAATTAATTATTAAATTAGTCAGGCACCGACAC | 1.54 ± 0.18 | 1.34 ± 0.21 |
| ACATTTGTTGATACAACCATAAAATGATAATTACACCCATAAATTGATAATTATCACACCCATAAATTGATATTCTCTGATCATAGTCAGACCAACATTGCTACGACCCGTATTCGCACCGACACTG | -0.29 ± 0.067 | -0.0876 ± 0.015 |
| ACATTTGTTGATACAACCATAAAATGATAATTACTCTGACACCCATAAATTGATAATTATCAGTGGGTATTTAACTATAACGTCATAGTCAGACCAACATTGCTACGACCCGTATTCGCACCGACAC | 1.33 ± 0.1 | -2.06 ± 0.27 |
| ACATTTGTTGATACAACCATAAAATGATAATTACACCCATAAATTGATAATTATCCACCCATAAATTGATATTGCCTCTGATCATAGTCAGACCAACATTGCTACGACCCGTATTCGCACCGACACT | 0.607 ± 0.072 | -0.433 ± 0.14 |
| ACATTTGTTGATACAACCATAACCTGATAATTACACCCATAAATTGATAATTATCACACCCATAAATTGATATTGCCTCTGATCATAGTCAGACCAACATTGCTACGACCCGTATTCGCACCGACAC | -0.337 ± 0.089 | -0.321 ± 0.01 |
| AGTAATGTTGATACAACCATAAAATGATAATTACACCCATAAATTGATAATTATCACACCCATAAATTGATATTGCCTCTGATCATAGTCAGACCAACATTGCTACGACCCGTATTCGCACCGACAC | -0.0802 ± 0.26 | -0.121 ± 0.05 |
| ACATTTGTTGATACAACCATATATTGATATCTCCACCCATAAATTGATAATTATCACACCCATAAATTGATAATTACTCTGATCATAGTCAGACCAACATTGCTACGACCCGTATTCGCACCGACAC | -0.06 ± 0.4 | -0.315 ± 0.0034 |
| ACATTTGTTGATACAACCATAAAATGATAATTACACCCATAAATTGATAATTATCACACCCATAAATTGATATTGCCTCTGATCATAGCAACCATAAAATGATAATTATCAGACCAAGCACCGACAC | -0.337 ± 0.55 | -0.108 ± 0.26 |
| ACATTTGTTGATACAACCATAAAATGATAATTAATAACACCCATAAATTGATAATTATCACACCCATAAATTGATATTGCCTCTGATCATAGTCAGACCAACATTGCTACGACCCGTATTCGCACCG | 0.728 ± 0.12 | -3.16 ± 0.3 |
| ACATTTGTTGATACAACCATAAGTTGATATTTTCAACCATAAGTTGATATTTTTCAGTGGGTATTTAACTATAACGCTCTGATCATAGTCAGACCAACATTGCTACGACCCGTATTCGCACCGACAC | 2.85 ± 0.1 | -0.302 ± 0.092 |
| ACATTTGTAAAAAAAACCATACGTTGATTTTACGAAACCATACGCTGAAATAATCACAACCATACATTGAAATTGCCTCTGATCATAGTCAGACCAACATTGCTACGACCCGTATTCGCACCGACAC | -4.99 ± 1 | -6.97 ± 0.31 |
| ACATTAGTGGATACAACCATAAAATGATAATTACACCCATAAATTGATCATTATCACACCCAATTTAACTATAACGCTCTGATCATAGTCAGACCAACATTGCTACGACCCGTATTCGCACCGACAC | -5.22 ± 1.2 | -7.5 ± 0.15 |
| ACATTTGTTGATACAACCCTAAAATGATAATTACACCCATAAATTCATCATTATCACACCCAATTTAACTATAACGCTCTGATCATAGTCAGACCAACATTGCTACGACCCGTATTCGCACCGACAC | -1.57 ± 0.23 | -4.59 ± 0.18 |
| ACATTTGTTGATACAACCATAAAATGATAATTAATAATTATTTATAATCACACCCATAAATTGATAATTATCACACCCATAAATTGATATTGCCTCTGATCATAGTCAGACCAACATTGCTACGACC | -0.35 ± 0.25 | -3.38 ± 0.096 |
| ACATTTGTTGATACAACCATAAAATGCGCCGGCCACCCATAAATTGCGCCGGCTCACACCCATAAATTGCGCGGTACTCTGATCATAGTCAGACCAACATTGCTACGACCCGTATTCGCACCGACAC | -3.06 ± 0.22 | -5.16 ± 0.24 |
